{"source": "patent US20220229068A1", "about": "“DETECTION OF PROTEIN TO PROTEIN INTERACTIONS” (THE GOVERNING COUNCIL OF THE UNIVERSITY OF TORONTO, priority 2019, published 2022)", "molecules": {"B1": {"name": "WT form of GP41-1: natural GP41-1 split intein, split at C37 (SEQ ID NO: 1, 2) (protein)", "chain 1": "CLDLKTQVQTPQGMKEISNIQVGDLVLSNTGYNEVLNVFPKSKKKSYKITLEDGKEIICSEEHLFPTQTGEMNISGGLKEGMCLYVKE", "chain 2": "MMLKKILKIEELDERELIDIEVSGNHLFYANDILTHN", "modifications": "Synthetic GP41-1 IN (WT); Synthetic GP41-1 IC (WT)"}, "B2": {"name": "C25 split intein: IC aa13-aa37 of WT IC; IN aa1-aa88 of WT IN + aa1-aa12 of WT IC (SEQ ID NO: 3, 4) (protein)", "chain 1": "CLDLKTQVQTPQGMKEISNIQVGDLVLSNTGYNEVLNVFPKSKKKSYKITLEDGKEIICSEEHLFPTQTGEMNISGGLKEGMCLYVKEMMLKKILKIEEL", "chain 2": "DERELIDIEVSGNHLFYANDILTHN", "modifications": "Synthetic GP41-1 IN (C25); Synthetic GP41-1 IC (C25)"}}, "target": "T1, FRB/FKBP1A interaction (Homo sapiens, UniProt P42345+P62942)", "T1 construct": "expressed in transfected cells; host or cells: HEK 293 (also HeLa, PC9)", "T1 sequence (P42345 with tags, fused parts or gaps)": "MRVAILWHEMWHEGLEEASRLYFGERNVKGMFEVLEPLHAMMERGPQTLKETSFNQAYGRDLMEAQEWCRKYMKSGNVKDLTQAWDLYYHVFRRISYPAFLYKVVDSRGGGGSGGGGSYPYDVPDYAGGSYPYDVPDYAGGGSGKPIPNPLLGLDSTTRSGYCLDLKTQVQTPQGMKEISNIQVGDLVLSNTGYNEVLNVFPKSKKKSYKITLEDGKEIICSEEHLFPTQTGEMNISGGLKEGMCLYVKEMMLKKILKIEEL", "T1 sequence (P62942 with tags, fused parts or gaps)": "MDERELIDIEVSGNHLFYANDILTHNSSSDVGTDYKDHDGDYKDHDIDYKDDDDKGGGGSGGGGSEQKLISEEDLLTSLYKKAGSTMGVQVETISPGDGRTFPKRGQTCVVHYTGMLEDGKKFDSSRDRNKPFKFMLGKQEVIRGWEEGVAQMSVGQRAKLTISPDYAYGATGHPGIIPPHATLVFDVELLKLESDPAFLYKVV", "assay_type": "cell-based", "conditions": "FRB-IN/IC-FKBP1A in HEK 293, Western blot", "procedure": "Cell culture and treatment. […] These cells were grown in DMEM supplemented with 10% fetal calf serum (Life Technologies). […] For ELISA assay, cells were seeded in 96 well (Sarstedt AG & Co) or 384 well plates (Greiner Bio-One) with 15,000 (96 well) or 5,000 (384 well) cells per well. Cells were transfected with various plasmids with polyethylenimine (PEI) Max (Polysciences) [40]. Expression in HEK 293 Flp-In T-Rex cells was induced by treating the cells with tetracycline (1 μg/ml) for 6-16 hrs. […] Stable cell lines were created according to the manual of Flp-In T-REx (Invitrogen). Briefly, plasmid containing both bait and prey DNA and pOG44 plasmid (1:10 ratio) were cotransfected into HEK 293 Flp-In T-Rex cells.\nWestern blot analysis and immunoprecipitation. Cells were lysed in buffer H (Triton X 100 1%, β-glycerophosphate pH7.3 50 mM, EGTA 1.5 mM, EDTA 1 mM, orthovanadate 0.1 mM, DTT 1 mM supplemented with protease inhibitors (Roche)). After centrifugation at 21,000×g for 10 min, the supernatants were mixed with Laemmli sample buffer, boiled at 95° C. for 3-5 min and subjected to Western blot analysis. For immunoprecipitations, supernatants (0.3 ml) were incubated with antibodies at 4° C. with rotation for one hour, followed by another hour of incubation with protein G sepharose beads (GE Healthcare). […]", "data": [{"molecule": "B1", "values": [{"measurement": "self-association / splicing in the absence of rapamycin", "value": "relatively high level of FRB/FKBP1A splicing even in the absence of rapamycin treatment"}]}, {"molecule": "B2", "values": [{"measurement": "self-association / splicing in the absence of rapamycin", "value": "minimal self-association"}]}]}
